# IntAct's records for PubMed 15024067
# B1: RNA-binding protein PIN4 (Saccharomyces cerevisiae), P34217 (parent)
# chain: METSSFENAPPAAINDAQDNNINTETNDQETNQQSIETRDAIDKENGVQTETGENSAKNAEQNVSSTNLNNAPTNGALDDDVIPNAIVIKNIPFAIKKEQLLDIIEEMDLPLPYAFNYHFDNGIFRGLAFANFTTPEETTQVITSLNGKEISGRKLKVEYKKMLPQAERERIEREKREKRGQLEEQHRSSSNLSLDSLSKMSGSGNNNTSNNQLFSTLMNGINANSMMNSPMNNTINNNSSNNNNSGNIILNQPSLSAQHTSSSLYQTNVNNQAQMSTERFYAPLPSTSTLPLPPQQLDFNDPDTLEIYSQLLLFKDREKYYYELAYPMGISASHKRIINVLCSYLGLVEVYDPRFIIIRRKILDHANLQSHLQQQGQMTSAHPLQPNSTGGSMNRSQSYTSLLQAHAAAAANSISNQAVNNSSNSNTINSNNGNGNNVIINNNSASSTPKISSQGQFSMQPTLTSPKMNIHHSSQYNSADQPQQPQPQTQQNVQSAAQQQQSFLRQQATLTPSSRIPSGYSANHYQINSVNPLLRNSQISPPNSQIPINSQTLSQAQPPAQSQTQQRVPVAYQNASLSSQQLYNLNGPSSANSQSQLLPQHTNGSVHSNFSYQSYHDESMLSAHNLNSADLIYKSLSHSGLDDGLEQGLNRSLSGLDLQNQNKKNLW
# B2: Serine/threonine-protein kinase RAD53 (Saccharomyces cerevisiae), P22216 (parent)
# chain: MENITQPTQQSTQATQRFLIEKFSQEQIGENIVCRVICTTGQIPIRDLSADISQVLKEKRSIKKVWTFGRNPACDYHLGNISRLSNKHFQILLGEDGNLLLNDISTNGTWLNGQKVEKNSNQLLSQGDEITVGVGVESDILSLVIFINDKFKQCLEQNKVDRIRSNLKNTSKIASPGLTSSTASSMVANKTGIFKDFSIIDEVVGQGAFATVKKAIERTTGKTFAVKIISKRKVIGNMDGVTRELEVLQKLNHPRIVRLKGFYEDTESYYMVMEFVSGGDLMDFVAAHGAVGEDAGREISRQILTAIKYIHSMGISHRDLKPDNILIEQDDPVLVKITDFGLAKVQGNGSFMKTFCGTLAYVAPEVIRGKDTSVSPDEYEERNEYSSLVDMWSMGCLVYVILTGHLPFSGSTQDQLYKQIGRGSYHEGPLKDFRISEEARDFIDSLLQVDPNNRSTAAKALNHPWIKMSPLGSQSYGDFSQISLSQSLSQQKLLENMDDAQYEFVKAQRKLQMEQQLQEQDQEDQDGKIQGFKIPAHAPIRYTQPKSIEAETREQKLLHSNNTENVKSSKKKGNGRFLTLKPLPDSIIQESLEIQQGVNPFFIGRSEDCNCKIEDNRLSRVHCFIFKKRHAVGKSMYESPAQGLDDIWYCHTGTNVSYLNNNRMIQGTKFLLQDGDEIKIIWDKNNKFVIGFKVEINDTTGLFNEGLGMLQEQRVVLKQTAEEKDLVKKLTQMMAAQRANQPSASSSSMSAKKPPVSDTNNNGNNSVLNDLVESPINANTGNILKRIHSVSLSQSQIDPSKKVKRAKLDQTSKGPENLQFS
# partner: B1 chain
# Variants of: B1
# Conditions: with rad53_yeast RAD53, P22216
row,Variant,effect of a mutation on the interaction
1,T305A,disrupting interaction

# Variants of: B2
# Conditions: with pin4_yeast PIN4, P34217
row,Variant,effect of a mutation on the interaction
1,N107A,disrupting interaction
2,R70K,disrupting interaction
3,R70A,disrupting interaction
4,S105T,disrupting interaction
